Legend:
[1] = target: T1, human trkA receptor immunoadhesin (trkA extracellular domain fused to immunoglobulin constant domains) (human, UniProt P04629 33-423); test: competitive displacement of labeled NGF from human trkA immunoadhesin, 96-well plate
T1 construct: extracellular domain; not shown: immunoglobulin constant domains

[2] = target: T2, human trkC receptor immunoadhesin (trkC extracellular domain fused to immunoglobulin constant domains) (human, UniProt Q16288 32-429); test: competitive displacement of labeled NT-3 from human trkC immunoadhesin, 96-well plate
T2 construct: extracellular domain; not shown: immunoglobulin constant domains

T1 sequence (P04629 33-423): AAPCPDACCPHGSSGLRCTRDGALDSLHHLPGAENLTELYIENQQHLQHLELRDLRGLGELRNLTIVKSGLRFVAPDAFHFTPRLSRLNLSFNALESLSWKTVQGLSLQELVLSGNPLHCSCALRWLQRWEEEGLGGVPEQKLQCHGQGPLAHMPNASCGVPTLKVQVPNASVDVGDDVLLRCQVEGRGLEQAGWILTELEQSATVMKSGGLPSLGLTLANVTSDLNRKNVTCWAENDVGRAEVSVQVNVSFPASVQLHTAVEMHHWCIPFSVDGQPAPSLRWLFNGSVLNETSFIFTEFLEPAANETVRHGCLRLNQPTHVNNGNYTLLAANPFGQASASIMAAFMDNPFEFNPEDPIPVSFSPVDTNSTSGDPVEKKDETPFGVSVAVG

Row | Binder | IC50mut/IC50NGF [1] | IC50mut/IC50NGF12 [2] | IC50mut/IC50NT-3 [2]
1 | NGF127 (ligand) SSSHPIFHRGEFSVCDSESLWVTDKTTATDIKGKEVMVLGEVNINNSVFKQYFFETKCRDPNPVDSGCRGIDSKHWNSQCKTTQTFVKALTMDGKQAAWRFIRIDTACVCVLSRKAVRRA | 1 ratio | 2.2 ratio | 33 ratio
2 | NGF130 (ligand) SSSHPIFHRGEFSVCDSVSLWVTDKTTATDIKGKEVMVLGEVNINNSVFKQYFFETKCRDPNPVDSGCRGIDSKHWNSYCTTTQTYVKALTMDGKQAAWRFIRIDTACVCVLSRKAVRRA | 1 ratio | 0.3 ratio | 4.5 ratio
3 | NGF131 (ligand, also called NGF31) SSSHPIFHRGEFSVCDSVSLWVTDKTTAIDIKGKEVMVLGEVNINNSVFKQYFFETKCRDPNPVDSGCRGIDSKHWNSYCTTTQTYVKALTMDGKQAAWRFIRIDTACVCVLSRKAVRRA | 1.1 ratio | 0.2 ratio | 3.3 ratio
4 | NGF1234 (ligand) SSSHPIFHRGEFSVCDSESLWVTDKTTAIDIKGKEVMVLGEVNINNSVFKQYFFETKCRDPNPVDSGCRGIDSKHWNSQCKTTQTYVKALTMDGKQAAWRFIRIDTACVCVLSRKAVRRA | 1.3 ratio | 0.3 ratio | 4.9 ratio
5 | NGFR2 (ligand) SSSHPIFHRGEFSVCDSVSLWVTDKTTATDIKGKEVMVLGEVNINNSVFKQYFFETKCRDPNPVDSGCRGIDSKHWNSYCKTTQTFVKALTMDGKQAAWRFIRIDTACVCVLSRKAVRRA | 0.9 ratio | 0.7 ratio | 10.5 ratio
6 | NGFR3 (ligand) SSSHPIFHRGEFSVCDSESVWVTDKTTATDIKGKEVMVLGEVNINNSVFKQYFFETKCRDPNPVDSGCRGIDSKHWNSYCKTTQTFVKALTMDGKQAAWRFIRIDTACVCVLSRKAVRRA | 1.6 ratio | 2.5 ratio | 37.2 ratio

From patent US6365373 (Genentech, dated 2002)
